From publication PMC8752864 (Nature Communications, 2022)

Biological target: T1, PB2 cap-mid-link construct (cap-binding and mid-link domains) from influenza A/duck/Fujian/01/2002 (H5N1) (Influenza A virus …)
Test: not given
Settings: not given

Binder | binding result
Nb8197 (VHH) VHH: QVQLQESGGGLVQPGGSLRLSCAASGFTFSSYAMSWVRQAPGKGLEWVSSITSAFGRTSYVSSVKGRFTISRDNAKNTLYLQMNSLKPEDTAVYYCAQGASWPYRYRGQGTQVTVSS | binds

Biological target: T2, RNA polymerase of influenza A/Brevig Mission/1/1918 (H1N1) virus, heterotrimer of PA, PB1 and PB2 (influenza A/Brevig Mission/1/1918 …, UniProt Q3HM39;Q3HM40;Q3HM41)
T2 construct: also called 1918 polymerase; 1918 pandemic influenza virus polymerase; copies: + +
Test: cryo-EM structure
Settings: both partners purified

Binder | binding result
Nb8192 (VHH, source: E. coli WK6, periplasm, purified (Ni-NTA)) VHH: QVQLQESGGGLVQAGASLRLSCAASGRTFMGWFRQAPGQEREFVAAIDAFGINTYYADSAKGRFTISRDSAKNTVYLQMNSLKPEDTAVYYCAATLRGTQPGAVMQWRPDYWGQGTQVTVSS | binds
Nb8203 (VHH) VHH: QVQLQESGGGLVQAGGSLRLSCAAPGRILTLSRYVMGWFRQAPGKEREFVAAISPGTTDTDYADSVKGRFTISRDNAKNTVYLEMSSLKPEDTAVYVCAAGAASSGTVYRVYGLYNYRGQGTQVTVSS | binds
Nb8207 (VHH, source: E. coli WK6, periplasm, purified (Ni-NTA)) VHH: QVQLQESGGGLVQAGASLRLSCTASGRTSSTYPMGWFRQGPGKEREFVAAISWAGSSTYYGDFVKGRFTISRDNAKNTVYLQMNSLKPEDTAVYYCARAARPYAYGLDYSTEASYDYWGQGTQVTVSS | binds
Nb8198 (VHH, source: E. coli WK6, periplasm, purified (Ni-NTA)) VHH: QVQLQESGGGLVQTGDSLRLSCAGAERSFNSYTMGWFRQAPGKEREFVAAIAFSGGFTYYAEAVKGRFTISRDSGKNTVYLQMNSLKPEDTAVYYCAARFYGGGYYYQQREYSFWGQGTQVTVSS | binds
Nb8190 (VHH, source: E. coli WK6, periplasm, purified (Ni-NTA)) VHH: QVQLQESGGGLVQAGGSLRLSCAASGRSLSDYTMGWFRQAPGKEREFVTAITSDGVYANYADSVKGRFTISRDNAKNTAYLQMNSLKPEDTAVYYCAGKTRRSMLMTTGYDYWGQGTQVTVSS | binds
Nb8196 (VHH, source: E. coli WK6, periplasm, purified (Ni-NTA)) VHH: QVQLQESGGGLVQAGDSLRLSCTTSGSSLSRYGVGWFRQAPGEEREFGASISWNGATYYADSVKGRFTISRDNAKNTVYLQMNSLKAEDTAVYYCAARSDGYLTPYLSPVYWGQGTQVTVSS | binds
Nb8204 (VHH, source: E. coli WK6, periplasm, purified (Ni-NTA)) VHH: QVQLQESGGGLVQPRGSLRLSCAASGSIAIIYTMGWYRQAPLKERELVATVTYGGNTNYADPVKGRFTISRDNNKNTEYLQMSSLQPEDTAVYYCYMRVRSTAWDTDDYWGQGTQVTVSS | binds
Nb8199 (VHH, source: E. coli WK6, periplasm, purified (Ni-NTA)) VHH: QVQLQESGGGLVQAGGSLRLSCAASGRTFSSYAMGWFRQAPGKEREFVGAIDLSGLYKHYGDSVKGRFTISRDNAKNTVYLQMSSLKPEDTAVYYCAAAGIYYAGSYSPLLYDYWGQGTQVTVSS | binds
Nb8202 (VHH, source: E. coli WK6, periplasm, purified (Ni-NTA)) VHH: QVQLQESGGGLVQAGESLRLSCAASGGTFIYYGMGWFRQAPGKEREFVASISQTGGDIYAMDFVKGRFTISRDNSKNTLYLQMNSLKPEDTAVYYCAAATSPYASRKLYEYKYWGQGTQVTVSS | binds
Nb8210 (VHH, source: E. coli WK6, periplasm, purified (Ni-NTA)) VHH: QVQLQESGGGLVQAGESLRLSCAASGGTLIYYGMGWFRQAPGKEREFVASISQAGGDIYAMDFVKGRFTISRDNSKNTLYLQLNTLKPEDTAVYYCAAATSPYASRKLYDYKYWGQGTQVTVSS | binds
Nb8191 (VHH, source: E. coli WK6, periplasm, purified (Ni-NTA)) VHH: QVQLQESGGGLVQPGGSLRLSCTASESVASINIVGWYRQISGKERELVARISSGGTITDYSDSVKGRFTITRDNTKNTVYLQMNSLKRGDTAVYYCNAEYQYGSDWFHIWGQGTQVTVSS | binds
Nb8209 (VHH, source: E. coli WK6, periplasm, purified (Ni-NTA)) VHH: QVQLQESGGGLVQPGGSLRLSCAASGNIRSINTMSWYRQAPGKERELVASDSTGGSTGGSTVYAASVKGRFTISRDNAKNTVYLQMNMLKPEDTAVYYCYVYGMSRFGSTISTLFGQGTQVTVSS | binds
Nb8205 (VHH) QVQLQESGGGMVQPGGSLRLSCLASGFTFSNYAMTWVRQAPGKGPEWVSMVSNNGADTTYTDSVKGRFTISRDNAKNTLYLRMNNVKPEDSAVYYCAKRRYGGIWTGQPTDYDYLGQGTVTVSS | binds
Nb8200 (VHH, source: E. coli WK6, periplasm, purified (Ni-NTA)) VHH: QVQLQESGGGLVQAGDSLRLSCAASGRTFSGYIMAWFRQTPGKERELVARLGPSSSIQYYRDSVKGRFTLSRDNAKNTLYLQMNSLKPEDTAVYYCAFTLKWSSDYRSHNAYDYWGQGTQVTVSS | binds
Nb8201 (VHH, source: E. coli WK6, periplasm, purified (Ni-NTA)) VHH: QVQLQESGGGLVQPGGSLRLSCAASGSDFSLYAMGWYRQVPGKERELVATITIGGTTNFADSARGRFTISRGNAKNTVYLQMNNLKPEDTAVYYCWSRGSYGRYLETWGQGTQVTVSS | binds
Nb8189 (VHH, source: E. coli WK6, periplasm, purified (Ni-NTA)) VHH: QVQLQESGGGLVQPGGSLRLSCAASGSDFSLYAMGWYRQVPGKERELVATITSGGTTNFADSARGRFTISRGNAKNTVYLQMNNLKPEDTAVYYCWSRGSYGRYLETWGQGTQVTVSS | binds
Nb8206 (VHH, source: E. coli WK6, periplasm, purified (Ni-NTA)) VHH: QVQLQESGGGLVQPGGSLRLSCTASGGIFGISAMGWYRQAPGKERELVARITRSGSTNFADSVKDRFTISRDATENTVVLQMNSLKAEDTAVYYCNGQFWEVDNGNIDLWGQGTQVTVSS | binds

Biological target: T3, polymerase acidic (PA) subunit of influenza A/Brevig Mission/1/1918 (H1N1) virus (influenza A/Brevig Mission/1/1918 …, UniProt Q3HM39)
T3 construct: the PA chain of m1
Test: cryo-EM structure
Settings: both partners purified

Binder | binding result
polymerase basic 2 (PB2) subunit of influenza A/Brevig Mission/1/1918 (H1N1) virus (natural protein, the PB2 chain of m1) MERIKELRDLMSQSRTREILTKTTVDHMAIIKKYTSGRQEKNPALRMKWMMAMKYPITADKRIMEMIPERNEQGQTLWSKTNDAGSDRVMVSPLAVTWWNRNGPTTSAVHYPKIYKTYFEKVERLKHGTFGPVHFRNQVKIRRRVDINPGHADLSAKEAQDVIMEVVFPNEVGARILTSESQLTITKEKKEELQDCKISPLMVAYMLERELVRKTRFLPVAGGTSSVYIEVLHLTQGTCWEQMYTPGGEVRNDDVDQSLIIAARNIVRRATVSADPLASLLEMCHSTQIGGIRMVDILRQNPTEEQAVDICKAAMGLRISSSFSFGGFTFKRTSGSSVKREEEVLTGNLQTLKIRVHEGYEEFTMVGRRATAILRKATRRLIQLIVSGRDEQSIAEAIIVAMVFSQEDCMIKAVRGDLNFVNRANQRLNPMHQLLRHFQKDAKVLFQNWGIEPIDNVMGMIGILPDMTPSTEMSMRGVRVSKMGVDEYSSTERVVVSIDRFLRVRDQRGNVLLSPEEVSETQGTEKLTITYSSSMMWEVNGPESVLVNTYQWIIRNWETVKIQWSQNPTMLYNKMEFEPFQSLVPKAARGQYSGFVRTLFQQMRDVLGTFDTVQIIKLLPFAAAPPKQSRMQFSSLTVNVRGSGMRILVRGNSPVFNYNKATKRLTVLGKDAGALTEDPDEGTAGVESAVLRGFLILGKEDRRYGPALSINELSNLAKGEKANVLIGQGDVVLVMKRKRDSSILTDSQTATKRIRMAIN | binds

Biological target: T1, PB2 cap-mid-link construct (cap-binding …)
Test: SEC
Settings: both partners purified

Binder | binding result
Nb8193 (VHH, source: E. coli WK6, periplasm, purified (Ni-NTA)) VHH: QVQLQESGGGLVQPGGSLRLSCAASGFTFKMYAMSWVRQAPGKGLEWVSSINSAGGSTSYVDSVKGRFTISRDNAKNTLYLQMNSLKPDDTAVYYCVQGRNWPYDYRGQGTQVTVSS | binds
Nb8194 (VHH, source: E. coli WK6, periplasm, purified (Ni-NTA)) VHH: QVQLQESGGGLVQPGGSLRLSCAASGFTFSNYYMSWVRQAPGEGREWVSSINRDGSNTYYADSVKGRFTIARDNVKNTLYLLMDSLKSDDTAVYYCTKGSNWPYDNWGQGTQVTVSS | binds
Nb8208 (VHH, source: E. coli WK6, periplasm, purified (Ni-NTA)) VHH: QVQLQESGGGLVQPGGSLRLSCAASGRTFSMYAMAWFRQAPGKQREFVGTISRSGDYALHADAVKGRFTISRDNAKNTVYLQMNSLKLEDTAVYYCAAGAYHSKDKTLYDYWGQGTQVTVSS | binds
